# Measured values from publication doi:10.1101/2022.09.27.509696 (bioRxiv, 2022).
# Where “and” joins values, the source holds several entries; their conditions need not be identical. Identical values can stand only once.
# B1: SmBiT-FAM237A (ligand)
# chain: HSQTDLLALSQADPQCWESSSVLLLEMWKPRVSNTVSGFWDFMIYLKSSENLKHGALFWDLAQLFWDIYVDCVLSRNHGL
# B2: mature human FAM237A (family with sequence similarity 237 member A) (ligand)
# chain: B1 chain
# modifications: amidated C-terminus; one intramolecular disulfide bond
# What was measured:
# Test in all cases: split reporter
# [1] = biological target: T1, sLgBiT-GPR83 (N-terminally sLgBiT-fused mature human GPR83) (human, UniProt Q9NYM4-1 17-423)
# T1 sequence (Q9NYM4 17-423): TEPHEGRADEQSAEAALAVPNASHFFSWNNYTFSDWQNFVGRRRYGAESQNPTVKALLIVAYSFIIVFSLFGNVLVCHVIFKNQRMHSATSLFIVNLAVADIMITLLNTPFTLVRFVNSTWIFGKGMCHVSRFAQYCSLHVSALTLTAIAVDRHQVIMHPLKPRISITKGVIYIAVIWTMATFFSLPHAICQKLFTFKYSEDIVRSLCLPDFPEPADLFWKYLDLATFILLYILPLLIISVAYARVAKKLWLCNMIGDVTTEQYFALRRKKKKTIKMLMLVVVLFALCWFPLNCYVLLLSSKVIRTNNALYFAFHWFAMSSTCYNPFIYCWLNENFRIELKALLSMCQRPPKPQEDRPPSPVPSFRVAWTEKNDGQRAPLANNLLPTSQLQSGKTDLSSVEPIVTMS
# [2] = biological target: T1, sLgBiT-GPR83 (N-terminally sLgBiT-fused …); remark: listed apart in the source
# [3] = biological target: T1, sLgBiT-GPR83 (N-terminally sLgBiT-fused …); remark: listed apart in the source
Binder,association half-life [1] [min],dissociation half-life [1] [min],Kd [2] [µM],IC50 [3]
B1,~3,~7.5,~0.07,
B2,,,,0.0135 µM and 0.0129 µM and 0.0169 µM
